Test results as given in the MegaScale stability set (Tsuboyama et al. 2023).

B1: HEEH_KT_rd6_3632 (parent)
chain: DAEELIELVERALKEGREIILLGVRITSEEAGKWFIEWIRRFL
B2: EEHEE_rd4_0363 (parent)
chain: VTVDIKGMEYHFDNPEEAKKFAERMAKELGGELKVENGTLKVE

Variants of: B1
Assay: folding stability dG (cDNA display proteolysis); higher = more stable
Details: PBS, room temperature

Folding stability dG [kcal/mol] of substitutions, site by site:
A2: D 3.4 | Q 3.55 | S 3.42 | I 4.2 | N 3.4 | F 4.2 | R 3.54 | P 3.65 | L 4.31 | T 3.62 | W 4.53 | K 3.5 | Y 4.2 | M 3.92 | H 3.66 | V 4.05 | G 3.42 | E 3.44
I6: L 3.62 | D 3.2 | F 3.48 | G 3.18 | H 3.29 | C 3.95 | K 3.24 | A 3.38 | E 3.18
L5: T 3.08 | S 2.85 | I 3.44 | A 2.97 | G 2.88 | W 3.67 | K 2.83 | R 2.79 | E 2.77 | N 2.72 | Q 2.83 | Y 3.47 | V 3.23 | D 3.02 | F 3.6 | H 2.83 | M 3.56 | C 3.74 | P 2.82
E4: F 4.15 | W 4.19 | A 3.96 | G 3.92 | L 4.1 | H 4.09 | T 4.03 | V 3.91 | Q 3.95 | N 3.78 | C 4.61 | Y 4.24 | I 4.06 | P 3.64 | K 4.18 | R 4.21 | S 3.89 | M 4.01 | D 3.65
E3: G 3.69 | D 3.85 | F 4.06 | A 3.87 | L 3.97 | V 3.78 | M 3.73 | P 3.46 | W 4.15 | H 4.02 | Y 4.02 | Q 3.94 | R 4.16 | I 3.85 | K 3.8 | N 3.87 | T 3.83 | S 3.74
D1: Y 4.26 | R 4.12 | G 3.9 | F 4.2 | H 4.04 | K 4.04 | Q 3.93 | S 3.98 | E 3.63 | A 3.97 | I 4.2 | W 4.64 | N 3.96 | V 4.07 | T 4 | L 4.31 | P 3.89 | M 4.11

Variants of: B2
Assay: as above
Details: PBS, room temperature

Folding stability dG [kcal/mol], by site and new letter:
V35: L 1.93 | D 1.59 | Q 1.62 | K 1.3
E43: H 2.21 | L 2.66 | A 1.94 | V 3.14
E32: Y 2.96 | S 2.48 | M 2.31 | W 2.97 | I 2.89 | T 2.81 | F 2.82 | V 2.84 | N 2.21
T2: G 0.389 | L 1.81 | E 0.41 | M 1.71 | A 1.1 | P 0.448
G7: A 0.278 | C 1.72 | R 0.237 | S 0.507 | Q 0.441 | D 0.499 | Y 0.918
V3: L 1.04 | R -0.231 | F 0.603
G30: F 1.43 | W 1.17 | P 0.76 | M 1.55 | H 1.74 | Y 1.27
P15: G 1.39 | D 1.58 | C 2.33 | Y 3.25 | T 1.52 | F 3.22
R24: V 1.35 | S 1.72 | M 2.11 | E 1.99
L40: Q 0.884 | E 0.788
D4: F 3.35 | M 3.14 | V 3.47 | W 3.59 | T 2.85 | P 0.415 | I 3.73
Y10: V 0.768 | S -0.033 | L 0.741 | W 1.56 | C 1.77 | A 0.161 | T 0.289 | N -0.275 | P -0.055
A22: D -0.23 | L 1.48 | M 1.39 | Q 0.746 | N 0.039
K34: V 2.26 | W 1.82 | N 1.41 | F 2 | G 1.03 | C 1.95 | E 1.02
I5: D 0.025 | Q 0.05 | P -0.167 | M 0.754 | K 0.088
F21: Q -0.803 | H -0.264 | E -0.293 | Y 1.06
K27: W 2.28 | I 2.14 | G 1.35 | R 2.11 | M 2.19
N37: E 1.52 | Q 1.46 | S 1.38
F12: K -0.237 | Y 0.382 | R -0.751 | Q -0.27 | A -0.113 | P -0.958 | V -0.424
L29: E 0.835 | P 0.59 | V 1.14 | F 1.55 | D 0.74 | T 1.37 | W 1.34
T39: P 0.866 | Q 1.91 | K 2.43 | M 2.24 | D 1.17 | W 1.66 | F 1.88 | L 2.13 | Y 1.95
V42: S 0.916 | E 0.783 | D 0.806 | R 0.352 | P 0.879
G31: V 1.85 | S 1.39 | N 0.953 | C 2.36 | L 2.57
K41: P 0.852 | Y 1.92 | T 1.73 | L 1.62
K19: R 2.65
K20: V 1.73 | Y 1.57 | A 2.42 | H 1.53 | G 1.18 | Q 2.01 | R 2.18
A26: K 0.954 | S 1.3 | E 0.931 | G 0.834 | P -0.451 | Y 0.983 | N 0.898 | L 1.64
A18: K -0.683 | Y 0.753 | T -0.52 | F 0.719 | I -0.262
N14: A 0.941 | W 0.812 | R 1.15 | T 2.07 | K 1.08 | E 1.18
M8: S 1.55 | N 1.58 | A 1.54 | P -0.136
E16: M 1.71 | Y 1.79 | N 1.41 | L 1.65
E28: L 2.34 | D 1.34 | Y 2.07 | C 2.97 | I 2.18 | S 1.4 | V 1.88 | H 1.73 | F 1.95
K6: E 2.26 | H 2.74 | Q 2.34 | G 2.68 | M 3.32
E17: V 1.17 | F 0.922 | P -0.343 | Y 0.905 | L 1.31
H11: F 2.13 | C 2.21 | Y 2.36 | Q 1.39
M25: G 0.03 | E 0.574 | C 2.19 | Y 1.34 | W 2.1 | D 0.142
E36: F 1.88 | D 1.77 | I 2.43 | M 1.84 | S 1.73 | W 1.52 | T 1.78 | P 0.792
D13: R 1.74 | T 1.93 | P 1.6 | Q 1.73 | F 1.41 | G 1.51
L33: P 0.732 | T 1.13 | E 0.789 | S 0.81
G38: V 0.725 | N 1.68 | I 0.967 | W 0.438 | F 0.552
E9: A 1.99 | N 1.71
E23: D 1.58 | C 2.35 | Y 1.5 | L 1.89 | N 0.999 | K 1.34 | P -0.639
V1: M 2 | H 1.63 | D 0.479 | Q 1.33
